# Measured values: patent publication US20220119522A1 (DENALI THERAPEUTICS, published 2022)
# Positions count from the first letter of the chain named. No end group written: not given here.
# T1: human TREM2 full length stalk region peptide (aa 129-172) (human, biotinylated (site not stated))
# T1 construct: also called Human TREM2 peptide (aa 129-172); full-length TREM2 stalk peptide
# T1 peptide: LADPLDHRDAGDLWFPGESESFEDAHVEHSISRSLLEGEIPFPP
# T2: human TREM2 truncated stalk peptide (aa 149-163) (human, also: biotinylated (site not given here))
# T2 construct: also called Human TREM2 peptide (aa 149-163); truncated stalk peptide containing the ADAM10/17 cleavage site
# T2 peptide: SFEDAHVEHSISRSL
# T3: mouse TREM2 full length stalk region peptide (aa 131-169) (mouse, UniProt Q99NH8 131-169, biotinylated (site not stated))
# T3 peptide (looked up): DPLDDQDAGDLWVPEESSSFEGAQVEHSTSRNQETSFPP
# B1: CL0020103 (antibody, V domains shown)
# VH: EVQLQQSGPELVKPGASVKISCKTSGYTFTEYTMHWVKESHGKSLEWIGGINPNKGGSSYNQKFKGKATLTVDKSSSTAYMDLRRLTSEDSAVYYCARGGYEYYALDYWGQGTSVTVSS
# VL: DIVMSQSPSSLTVSVGERVTMSCKSSQSLLYSRNQKNYLAWYQQKPGQSPKLLIYWASTRESGVPDRFTGSGSGTDFSLTISSVKAEDLAVYYCQQYYSYPPTFGGGTKLEIK
# notes: also called Clone CL0020103
# B2: CL0020186 (antibody, V domains shown)
# VH: EVQLVESGGGLVQPGRSLKLSCPASGFTFSYYGMAWVRQAPTKGLEWVASISTGGGNTYYRDSVKGRFTISRDNAKNTLYLQMDSLRSEDTATYYCARGDIGTAYWFTYWGQGTLVTVSS
# VL: NIQLTQSPSLLSASVGDRVTLSCKGSQNINNYLAWYQQKLGEAPKLLIYKTNSLLTGIPSRFSGSGSGTDYTLTISSLHSEDLATYYCYQYNNGWTFGGGTKLELK
# notes: also called Clone CL0020186
# B3: CL0020215 (antibody, V domains shown)
# VH: QVQLQQPGAELVKPGASVKMSCKASGYTFTNYWIMWVKQRPGQGLEWIGDIYPSSGSTNYNEKFKNRATLTVDTSSNTAYMQLSSLTSEDSAVYFCSREGYGISAWGQGTTLTVSS
# VL: QIVLTQSPAIMSASPGEKVTITCSASSSVSYMHWFQQKPGTSPKLWIYSTSNLASGVPARFSGSGSGTSCSLTISRMEAEDAATYYCQQRSSFPLTFGAGTKLELK
# notes: also called Clone CL0020215
# B4: CL0020111 (antibody, V domains shown)
# VH: B3 VH with E10D, M35T, K38Q, S54G, S57N, K65R, N66S, R67K, F95Y
# VL: B3 VL with I10F, S24R, Y48F, C70H, S92G, F93Y
# notes: also called Clone CL0020111
# B5: CL0020161 (antibody, V domains shown)
# VH: EVQLVESGGGLVQPGRSMKLSCAALGFTFSNYYMAWVRQAPRKGLEWVASISTGGDNTYYRDSVKGRFTISRDNAKSTLYMQMDSLRSEDTATYYCVRSFIVGTTGYYFDYWGQGVMVTVSS
# VL: DIVLTQSPALAVSLGQRATISCKTNQNVDYYGNNYMHWYQQTPGQQPKLLIYFASNLASGIPARFSGRGSGTDFTLTIDPVEADDTATYYCQQSRNLPTFGGGTKLELK
# notes: also called Clone CL0020161
# B6: CL0020164 (antibody, V domains shown)
# VH: EVKLLESGGGLVQPGGSLRLSCAASGFTFTDFYMSWIRQPPGKAPEWLGVIRNKANGFTTEYNTSVKGRFTISRDYTQNILHLQTNTLRAEDTAIYYCARLTYGFDYWGQGVMVTVSS
# VL: DIVMTQGALPNPVPSGESASITCQSSKSLLHSNGKTYLNWYLQRPGQSPQFLIYWMSTRASGVSDRFSGSGSGTDFTLKISSVEAEDVGVYYCQQFLELPFTFGSGTKLEIK
# notes: also called Clone CL0020164
# B7: CL0020173 (antibody, V domains shown)
# VH: EVKLLESGGGLVQPGSSMRLSCAASGFTFTDFYMNWIRQPAGRAPEWLGFFRNIVDGYTTEYNPSVKGRFTISRDNTQNMLYLQMNTLRAEDTATYYCARSGYSSYIYGGTFAYWGQGTLVTVSS
# VL: ETVMTQSPTSMSTSIGERVTLNCKASQSVGIHVDWYQQTPGQSPKLLIYGASNRHTGVPDRFTGSGFGRDFTLTISNVEAEDLAVYYCLQYGSIPWTFGGGTKLELK
# notes: also called Clone CL0020173
# B8: CL0020109 (antibody, V domains shown)
# VH: EVQLQQSGPVLVKPGASLKMSCRASGYTFTDYYVHWVKQSHGKSLEWIGLINPYTGTTSYNQRFKGKATLTVDKSSSTAYMEVNSLTSEDSAVYYCARSRVYYGSSLFAFWGQGTLVTVSA
# VL: DIVMTQSPSSLSVSAGEKVTMSCKSSQSLLNSGNQKNYLAWYQQKPGQPPKLLIYGASTRESGVPDRFTGSGSGTDFTLTISSVQAEDLAVYYCQNDHSYPYTFGGGTKLEIK
# notes: also called Clone CL0020109
# B9: CL0020162 (antibody, V domains shown)
# VH: QIQLVQSGPELKKPGESLKISCKASGYTFTDYAMQWVKQAPEKGLQYMGWINTQTGKPTYADDFKERFVFSLETSATTAYLQINNLKNEDMATYFCVRSYNNYENWFAYWGQGTLVTVSS
# VL: DIVMTQSPSSLAVSAGETVTINCKSSQSLLYSGNQKNYLAWYQQKPGQSPKVLIYWASTRQFGVPDRFIGSGSGTDFTLTISSVQAEDLAIYYCQQYYNSPITFGSGTKLEIK
# notes: also called Clone CL0020162
# B10: CL0020214 (antibody, V domains shown)
# VH: QVRLQQSGAELVRPGSSVKLSCKASGYAFSSYWMNWVKQRPGQGLEWIGQIYPGDGDTNYNGNFKGKATLTADNSSSTAYMQLSSLTSEDSAVYFCARRRNGDFGDYAMDYWGQGTSVTVSS
# VL: QIVLTQSPAIMSASPGEKVTISCSASSSVSYMCWYQQKPGSSPKPWIYRTSTLASGVPARFSGSGSGTSYSLTISSMEAADAATYYCQHYHSYPFTFGAGTKLELK
# notes: also called Clone CL0020214
# B11: CL0020124 (antibody, V domains shown)
# VH: EVQLQQSGPVLVKPGASVKMSCKPSGYTFTDYYMNWVKQSHGKSLEWIGSINPYTGGSSYNQKFRGKATLTVDKSSSTAYMELNSLTSEDSAVYYCARGSYYSNLGFAYWGQGTLVTVSA
# VL: DVQLTQSPSYLTASPGETITINCRASKSISKYLAWYQEKPGKTNKLLISSGSTLQSGIPSRFSGSGSGTDFTLTISSLEPEDFAMYYCQQYSEYPFTFGSGTKLEIK
# notes: also called Clone CL0020124
# Target: T1, human TREM2 full length stalk region …
# Assay: ELISA on biotinylated peptide captured by streptavidin; A450 normalised to isotype control
# Method: (§1) TREM2 antibodies were evaluated for binding to human and mouse TREM2 stalk region peptides. […] Antibody binding to TREM2 stalk peptides was detected using standard sandwich ELISA. Briefly, a 96-well half-area ELISA plate was coated with streptavidin overnight at 4° C. The following day, biotinylated TREM2 stalk peptides diluted in 1% BSA/PBS were added to the plate and incubated for 1 hour. Antibodies diluted in 1% BSA/PBS were then added and incubated for 1 hour. Antibodies bound to peptide were detected with anti-human kappa-HRP secondary antibody (Bethyl Laboratories, Inc.) diluted in 1% BSA/PBS. Plates were assayed by reaction with a detection reagent (One-step TMB Ultra, Thermo) and measurement of absorbance at 450 nm (A450) by standard spectrophotometry instrumentation (BioTek®). Data are shown as normalized values (fold over background where background=isotype control).
row,fold over background (A450),Binder
1,56 fold,B1
2,4.9 fold,B2
3,1.2 fold,B3
4,1.3 fold,B4
5,1.4 fold,B5
6,50 fold,B6
7,1.6 fold,B7
8,1.7 fold,B8
9,49 fold,B9
10,1.5 fold,B10

# Target: T2, human TREM2 truncated stalk peptide (aa …)
# Assay: as above
# Method: as §1
row,fold over background (A450),Binder
1,1.8 fold,B1
2,1.3 fold,B2
3,1.1 fold,B3
4,1.6 fold,B4
5,1 fold,B5
6,1.4 fold,B6
7,1.2 fold,B7
8,1.5 fold,B8
9,1.3 fold,B9
10,1.3 fold,B10
11,1.5 fold,B11

# Target: T3, mouse TREM2 full length stalk region …
# Assay: as above
# Method: as §1
row,fold over background (A450),Binder
1,4.1 fold,B1
2,7 fold,B2
3,1.1 fold,B3
4,1.1 fold,B4
5,1.2 fold,B5
6,51 fold,B6
7,1.2 fold,B7
8,1.7 fold,B8
9,10 fold,B9
10,1.3 fold,B10
11,1.6 fold,B11
